Source: patent publication US20170210818A1 (CALIFORNIA INSTITUTE FOR BIOMEDICAL RESEARCH, published 2017)

Target: T1, CD19 on Nalm-6 cells (UniProt P15391 20-556, limits assumed)
T1 construct: whole, on cells; also called Nalm-6 cells (CD19 positive cells)
T1 sequence (looked up): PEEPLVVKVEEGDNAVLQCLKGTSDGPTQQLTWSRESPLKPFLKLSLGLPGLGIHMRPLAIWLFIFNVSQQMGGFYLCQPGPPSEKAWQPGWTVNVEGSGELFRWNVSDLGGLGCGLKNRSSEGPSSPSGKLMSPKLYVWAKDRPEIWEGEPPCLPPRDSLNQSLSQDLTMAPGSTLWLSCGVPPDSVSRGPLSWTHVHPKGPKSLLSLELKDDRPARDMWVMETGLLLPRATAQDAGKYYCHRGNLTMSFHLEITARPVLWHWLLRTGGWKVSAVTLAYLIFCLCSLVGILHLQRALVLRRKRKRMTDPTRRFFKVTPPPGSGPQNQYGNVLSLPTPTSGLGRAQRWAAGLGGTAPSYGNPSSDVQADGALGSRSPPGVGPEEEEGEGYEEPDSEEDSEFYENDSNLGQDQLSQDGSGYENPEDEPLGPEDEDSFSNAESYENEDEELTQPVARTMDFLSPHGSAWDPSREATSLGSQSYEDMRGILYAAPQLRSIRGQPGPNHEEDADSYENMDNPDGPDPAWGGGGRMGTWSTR
Test: flow cytometry on Nalm-6 cells, 10 nM, fluorescent anti-human IgG secondary antibody
Method: Nalm-6 and K562 cells were cultured according to vendor's protocol. Cells were centrifuged and blocked in 1× PBS with 10% FBS at 4° C. for 1 hour. […] The cell suspensions were shaken for 1 hour at 4° C. The cells were washed 3 times with PBS. The cells were incubated with a secondary antibody (e.g., Fluorescein-anti-human IgG or A488-anti-hIgG) at 4° C. for 1 hour. The cells were washed 3 times with PBS and resuspended in PBS. The cellular fluorescence distribution was determined by flow cytometry.

binding result: binds
B1: anti-CD19ScFv-UCHT1-CL(Fab) (bispecific antibody)
heavy: EVQLQQSGPELVKPGASMKISCKASGYSFTGYTMNWVKQSHGKNLEWMGLINPYKGVSTYNQKFKDKATLTVDKSSSTAYMELLSLTSEDSAVYYCARSGYYGDSDWYFDVWGQGTTLTVFSASTKGPSVFPLAPSSKSTSGGTAALGCLVKDYFPEPVTVSWNSGALTSGVHTFPAVLQSSGLYSLSSVVTVPSSSLGTQTYICNVNHKPSNTKVDKKVEPKSC
light: DIQMTQTTSSLSASLGDRVTISCRASQDIRNYLNWYQQKPDGTVKLLIYYTSRLHSGVPSKFSGSGSGTDYSLTISNLEQEDIATYFCQQGNTLPWTFAGGTKLEIKRTVAAPSVFIFPPSDEQLKSGTASVVCLLNNFYPREAKVQWKVDNALQSGNSQESVTEQDSGGGGSGGGGSGGGGSEVKLQESGPGLVAPSQSLSVTCTVSGVSLPDYGVSWIRQPPRKGLEWLGVIWGSETTYYNSALKSRLTIIKDNSKSQVFLKMNSLQTDDTAIYYCAKHYYYGGSYAMDYWGQGTSVTVSSGGGGSGGGGSGGGGSDIQMTQTTSSLSASLGDRVTISCRASQDISKYLNWYQQKPDGTVKLLIYHTSRLHSGVPSRFSGSGSGTDYSLTISNLEQEDIATYFCQQGNTLPYTFGGGTKLEIGGGGSDSTYSLSSTLTLSKADYEKHKVYACEVTHQGLSSPVTKSFNRGEC
